Results: patent US11833164B2, “Methods of treating Fabry disease in patients having a mutation in the GLA gene” (Amicus Therapeutics, Inc., priority 2019, dated 2023)

Test system: mutant form of α-Gal A expressed in HEK-293 cells
Experiment: HEK assay (GLP HEK / Migalastat Amenability Assay): α-Gal A activity in lysates of transiently transfected HEK-293 cells incubated with or without 10 μM migalastat
Format: cell-based, human
Settings: for Absolute increase (% WT) / Relative increase: 10 μM migalastat versus baseline; for Baseline α-Gal A activity (% WT): absence of migalastat; for Baseline α-Gal A activity (% WT) / 10 μM migalastat α-Gal A activity (% WT): percentage of baseline wild-type α-Gal A activity; for 10 μM migalastat α-Gal A activity: incubated 5 days with 10 μM migalastat; for 10 μM migalastat α-Gal A activity (% WT): with 10 μM migalastat, 5 days
In short: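 Activity reported as 4-MU released (nmol/mg/hr), mean±SEM, from lysates of transiently transfected HEK-293 cells expressing mutant α-Gal A, cultured with or without 10 μM migalastat.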

[1] = lysates of HEK-293 cells transiently transfected with the mutant form, incubated 5 days in absence of migalastat, mean ± SEM
[2] = lysates of HEK-293 cells transiently transfected with the mutant form, mean ± SEM

Molecule | Absolute increase (% WT) | Relative increase | Baseline α-Gal A activity (% WT) (mean ± SEM) | Baseline α-Gal A activity [1] [nmol/mg/h] | 10 μM migalastat α-Gal A activity [2] [nmol/mg/h] | 10 μM migalastat α-Gal A activity (% WT) (mean ± SEM) | Baseline α-Gal A activity (nmol/mg/hr) [1]
L300V (protein) MQLRNPELHLGCALALRFLALVSWDIPGARALDNGLARTPTMGWLHWERFMCNLDCQEEPDSCISEKLFMEMAELMVSEGWKDAGYEYLCIDDCWMAPQRDSEGRLQADPQRFPHGIRQLANYVHSKGLKLGIYADVGNKTCAGFPGSFGYYDIDAQTFADWGVDLLKFDGCYCDSLENLADGYKHMSLALNRTGRSIVYSCEWPLYMWPFQKPNYTEIRQYCNHWRNFADIDDSWKSIKSILDWTSFNQERIVDVAGPGGWNDPDMLVIGNFGLSWNQQVTQMALWAIMAAPLFMSNDVRHISPQAKALLQDKDVIAINQDPLGKQGYQLRQGDNFEVWERPLSGLAWAVAMINRQEIGGPRSYTIAVASLGKGVACNPACFITQLLPVKRKLGFYEWTSRLRSHINPTGTVLLQLENTMQMSLKDLL | 14.0 | 13.2 | 1.3 ± 0.2 | 406 ± 48 | 5354 ± 203 | 15.3 ± 0.6 | 
H302Y (protein) MQLRNPELHLGCALALRFLALVSWDIPGARALDNGLARTPTMGWLHWERFMCNLDCQEEPDSCISEKLFMEMAELMVSEGWKDAGYEYLCIDDCWMAPQRDSEGRLQADPQRFPHGIRQLANYVHSKGLKLGIYADVGNKTCAGFPGSFGYYDIDAQTFADWGVDLLKFDGCYCDSLENLADGYKHMSLALNRTGRSIVYSCEWPLYMWPFQKPNYTEIRQYCNHWRNFADIDDSWKSIKSILDWTSFNQERIVDVAGPGGWNDPDMLVIGNFGLSWNQQVTQMALWAIMAAPLFMSNDLRYISPQAKALLQDKDVIAINQDPLGKQGYQLRQGDNFEVWERPLSGLAWAVAMINRQEIGGPRSYTIAVASLGKGVACNPACFITQLLPVKRKLGFYEWTSRLRSHINPTGTVLLQLENTMQMSLKDLL | 25.3 | 1.4 | 59 ± 3.5 | 22554 ± 1372 | 31688 ± 1241 | 84.2 ± 5.2 | 
H302L (protein) MQLRNPELHLGCALALRFLALVSWDIPGARALDNGLARTPTMGWLHWERFMCNLDCQEEPDSCISEKLFMEMAELMVSEGWKDAGYEYLCIDDCWMAPQRDSEGRLQADPQRFPHGIRQLANYVHSKGLKLGIYADVGNKTCAGFPGSFGYYDIDAQTFADWGVDLLKFDGCYCDSLENLADGYKHMSLALNRTGRSIVYSCEWPLYMWPFQKPNYTEIRQYCNHWRNFADIDDSWKSIKSILDWTSFNQERIVDVAGPGGWNDPDMLVIGNFGLSWNQQVTQMALWAIMAAPLFMSNDLRLISPQAKALLQDKDVIAINQDPLGKQGYQLRQGDNFEVWERPLSGLAWAVAMINRQEIGGPRSYTIAVASLGKGVACNPACFITQLLPVKRKLGFYEWTSRLRSHINPTGTVLLQLENTMQMSLKDLL | 24.6 | 1.4 | 60.7 ± 5.1 | 24188 ± 1797 | 34251 ± 1760 | 85.3 ± 4.7 | 
S304I (protein) MQLRNPELHLGCALALRFLALVSWDIPGARALDNGLARTPTMGWLHWERFMCNLDCQEEPDSCISEKLFMEMAELMVSEGWKDAGYEYLCIDDCWMAPQRDSEGRLQADPQRFPHGIRQLANYVHSKGLKLGIYADVGNKTCAGFPGSFGYYDIDAQTFADWGVDLLKFDGCYCDSLENLADGYKHMSLALNRTGRSIVYSCEWPLYMWPFQKPNYTEIRQYCNHWRNFADIDDSWKSIKSILDWTSFNQERIVDVAGPGGWNDPDMLVIGNFGLSWNQQVTQMALWAIMAAPLFMSNDLRHIIPQAKALLQDKDVIAINQDPLGKQGYQLRQGDNFEVWERPLSGLAWAVAMINRQEIGGPRSYTIAVASLGKGVACNPACFITQLLPVKRKLGFYEWTSRLRSHINPTGTVLLQLENTMQMSLKDLL | 13.9 | 1.5 | 30.6 ± 1.4 | 11675 ± 939 | 17257 ± 1837 | 44.6 ± 2.4 | 
H302N (protein) MQLRNPELHLGCALALRFLALVSWDIPGARALDNGLARTPTMGWLHWERFMCNLDCQEEPDSCISEKLFMEMAELMVSEGWKDAGYEYLCIDDCWMAPQRDSEGRLQADPQRFPHGIRQLANYVHSKGLKLGIYADVGNKTCAGFPGSFGYYDIDAQTFADWGVDLLKFDGCYCDSLENLADGYKHMSLALNRTGRSIVYSCEWPLYMWPFQKPNYTEIRQYCNHWRNFADIDDSWKSIKSILDWTSFNQERIVDVAGPGGWNDPDMLVIGNFGLSWNQQVTQMALWAIMAAPLFMSNDLRNISPQAKALLQDKDVIAINQDPLGKQGYQLRQGDNFEVWERPLSGLAWAVAMINRQEIGGPRSYTIAVASLGKGVACNPACFITQLLPVKRKLGFYEWTSRLRSHINPTGTVLLQLENTMQMSLKDLL | 30.2 | 1.3 | 91.2 ± 4.3 | 31958 ± 1777 | 42296 ± 2028 | 121.4 ± 6.2 | 
H302D (protein) MQLRNPELHLGCALALRFLALVSWDIPGARALDNGLARTPTMGWLHWERFMCNLDCQEEPDSCISEKLFMEMAELMVSEGWKDAGYEYLCIDDCWMAPQRDSEGRLQADPQRFPHGIRQLANYVHSKGLKLGIYADVGNKTCAGFPGSFGYYDIDAQTFADWGVDLLKFDGCYCDSLENLADGYKHMSLALNRTGRSIVYSCEWPLYMWPFQKPNYTEIRQYCNHWRNFADIDDSWKSIKSILDWTSFNQERIVDVAGPGGWNDPDMLVIGNFGLSWNQQVTQMALWAIMAAPLFMSNDLRDISPQAKALLQDKDVIAINQDPLGKQGYQLRQGDNFEVWERPLSGLAWAVAMINRQEIGGPRSYTIAVASLGKGVACNPACFITQLLPVKRKLGFYEWTSRLRSHINPTGTVLLQLENTMQMSLKDLL | 25.8 | 1.3 | 95.1 ± 5.8 | 32677 ± 1437 | 41716 ± 1847 | 120.8 ± 6.6 | 
I303S (protein) MQLRNPELHLGCALALRFLALVSWDIPGARALDNGLARTPTMGWLHWERFMCNLDCQEEPDSCISEKLFMEMAELMVSEGWKDAGYEYLCIDDCWMAPQRDSEGRLQADPQRFPHGIRQLANYVHSKGLKLGIYADVGNKTCAGFPGSFGYYDIDAQTFADWGVDLLKFDGCYCDSLENLADGYKHMSLALNRTGRSIVYSCEWPLYMWPFQKPNYTEIRQYCNHWRNFADIDDSWKSIKSILDWTSFNQERIVDVAGPGGWNDPDMLVIGNFGLSWNQQVTQMALWAIMAAPLFMSNDLRHSSPQAKALLQDKDVIAINQDPLGKQGYQLRQGDNFEVWERPLSGLAWAVAMINRQEIGGPRSYTIAVASLGKGVACNPACFITQLLPVKRKLGFYEWTSRLRSHINPTGTVLLQLENTMQMSLKDLL | 3.8 |  |  |  | 1496 ± 117 | 3.8 ± 0.3 | BLD (“BLD” indicates that the mean α-Gal A activity was below the limit of detection (<142 nmol/mg/hr))
